Assay results: the supplement of paper PMC12764529
± gives the half width of the 95% confidence interval.

Tests used:
[1] = folding stability dG unfold from chymotrypsin proteolysis; higher = more stable
How it was run: (§1)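 Digests were run with trypsin and chymotrypsin at 11 concentrations in threefold dilutions, plus a no-protease condition, on designed mini-proteins in a PA-tagged cDNA display construct. The mini-proteins were under 80 residues, had no cysteine, and were kept only when AlphaFold2 dimer inter-PAE was above 15. After sequencing, Bayesian fitting of the counts gave K50, from which unfolding free energy was derived against a sequence-predicted unfolded-state K50 and a shared folded-state K50, per protease or combined.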

[2] = folding stability dG unfold (combined trypsin and chymotrypsin); higher = more stable
How it was run: as §1

[3] = folding stability dG unfold from trypsin proteolysis; higher = more stable
How it was run: as §1

| Sequence | folding stability dG unfold [1] [kcal/mol] | folding stability dG unfold [2] [kcal/mol] | folding stability dG unfold [3] [kcal/mol] |
| --- | --- | --- | --- |
| SAMYLIKITIYNEETGEKIAELTLEVEEEDLEELLEEIRKKLNLPPGAKIKVEIVPLEPVVLPDGKLLKSAG [r14_297_TrROS_Hall] | 2.54 ± 0.2 | 1.7 ± 0.27 | 0.724 ± 0.12 |
| SAMYTLRTISYDPNTGVRKLELTVDPAHPDRPVPEAVTQAVADAYAAQGWSVTVTRHPDGSVVIDVPVPSAG [r14_865_JUSTAS] | 1.86 ± 0.027 | 1.88 ± 0.022 | 1.84 ± 0.031 |
| SAMYVYRARVEVRGPDGELLAEEEIVAESPEELKVAVLERFGLKESEIVRLEVEPVIPLEEFLELLEKGSAG [r14_852_TrMRF] | 2.48 ± 0.068 | 2.39 ± 0.11 | 2.05 ± 0.042 |
| SAPDAKVEFNPKLVRKGDELLLLVEVKLSPDVDEVVVEIEVTGPDGSPFKVEAVQFPETGTVLVKAVLPASA [r9_159_TrMRF] | 2.04 ± 0.061 | 1.75 ± 0.094 | 1.33 ± 0.078 |
| SAPDVVVVPIKIPPGEMSPSDMIEMIEQAFDQFNWPITPDRIEKLVDKAMKNGDSIWAVIRYLREEGWLSAG [r14_364_TrROS] | 3.022 ± 0.021 | 2.86 ± 0.076 | 2.63 ± 0.049 |
| SAPFQIKEITVNPKDGEAEINFPLENLPPPWMIHIFDKDKGKTQWIPPGGEIEIRAPEGPVKIMIFWRDSAG [r14_134_TrROS] | 0.981 ± 0.45 | 1.16 ± 0.25 | 1.27 ± 0.12 |
| SAPKIKEIKEFDPETKKILIKVETPEGEKEIPIPAGGNMTVEEAIEKVKEFLEKELPEGVELEVEEITISAG [r14_422_TrMRF] | 1.35 ± 0.1 | 1 ± 0.17 | 0.494 ± 0.12 |
| SAPKVISATVTYNPATGKVTVTVTLEDADGPVTVTYTFDGDGNVPVTVYDTRTTKPLGTITVPADQLNLSAG [r14_608_TrMRF] | 1.21 ± 0.23 | 1.14 ± 0.18 | 1.06 ± 0.08 |
| SAPNYPFFVRIKLPGNGQEVEFPIESPEEADEMLDNFANHPHIKDIDIYRPDGEEVEIEIKIPPEALKQSAG [r14_747_TrROS] | 0.119 ± 0.16 | 0.0333 ± 0.26 | -0.622 ± 0.3 |
| SAPPDFKIKDVKVRRHPHKQEDGGKEKEFPMYHVNVRIEDPNGNKIPINFMMDDPEEMLRFARKLLKKLSAG [r14_36_TrROS] | 2.17 ± 0.2 | 2.14 ± 0.25 | 2.2 ± 0.14 |
| SAPPIEELSEEEIKKLVEEELKKKGISPENVKIEITIEKPPGPEYRVKVKVTYKKNKNYLEFEFEFELPSAG [r14_703_JUSTAS] | 4.23 ± 0.17 | 3.96 ± 0.33 | 2.34 ± 0.2 |
| SAPPNVWVSRTDPATGAVHAEDIPFPDGATAETVPDPATGTVAQSSDGPPAVLEEVRAALPPDASIEPASAG [r14_252_JUSTAS] | -0.245 ± 0.42 | -0.175 ± 0.2 | -0.555 ± 0.15 |
| SAPPRISIPWDPESGNWRVKVYNPKDPGKKREIDIPMKELQAKHGKPMSPNEIAQWLVKKGIDYVEIYPSAG [r14_809_TrROS] | 0.559 ± 0.21 | 0.409 ± 0.2 | 0.183 ± 0.19 |
| SAPVRGPDGSVFEVDDITFDPDTRTVTVTTPEGTYTFPVPPGWVVEFDPVTKEITVRPLPDLSPENNPFPSA [r9_551_TrMRF] | 2.84 ± 0.06 | 2.79 ± 0.097 | 2.54 ± 0.15 |
| SARIAEILRELGMEVSVENHPDGMNEITFKFPNGYKIQVHMSPNGIDVQIQPPEGERRTFSIDEIKDLLSAG [r14_578_TrROS] | 3.14 ± 0.046 | 2.77 ± 0.081 | 2.23 ± 0.071 |
| SARPLVVTNPKGSTVRLDPSTGTAEFRNLVTGETVTAKVKPVPNGVLVEVEEGGVKKTFVVPEDGKIVLGSA [r9_239_TrMRF] | -0.372 ± 0.087 | -0.0287 ± 0.066 | 0.172 ± 0.052 |
| SARRDGSKVFLELERVVPLDVPLETVLEEVRRLFPEDAEIRLEAVPRRDLLDGVPREYRVVRVIVVRDDSAG [r14_633_TrMRF] | 2.16 ± 0.039 | 1.79 ± 0.15 | 1.06 ± 0.058 |
| SARTLTITVPPGYRARVVVTLENGEPLELEVPPSESVTLTIPPGVPALVRVEVFYPDGSVGEFEVEVDDSAG [r14_568_TrMRF] | 4.76 ± 0.14 | 4.79 ± 0.2 | 4.65 ± 0.25 |

| Sequence | folding stability dG unfold [1] [kcal/mol] | folding stability dG unfold [2] [kcal/mol] | folding stability dG unfold [3] [kcal/mol] |
| --- | --- | --- | --- |
| SASEDETVETTTTTTSTFTLPNGETVTLTTTTKTTEKILPETGEVVESTTTTTTVTRTDASTTTTVATSSAG [r14_333_JUSTAS] | 1.22 ± 0.082 | 1.27 ± 0.11 | 1.12 ± 0.068 |
| SASEDGYVVVEITIPIEIYMPMYKYSPDGKWKWEPHQMEIKLEITVQVKKDPEAADRAREFADRILDYISAG [r14_830_TrROS] | 3.59 ± 0.21 | 3.22 ± 0.23 | 2.7 ± 0.13 |
| SASFTLTITPVSTLPGGEVKYEVTVTTPTATVTLSATYDPATGLITVTFPETGSTVTFDPATGTVTVTPSAG [r14_260_JUSTAS] | 5.089 ± 0.032 | 5.05 ± 0.083 | 3.93 ± 0.12 |
| SASITHTVPGVQVRAYLNPDGYMFIQVYNPNDGEPKQPIWMPPDHITDVEVTGDWVKITIKMDPEDFKLSAG [r14_755_TrROS] | 2.32 ± 0.08 | 2.06 ± 0.16 | 1.25 ± 0.052 |
| SASITLTAPGGKPVTLPVPPSLSVLSVELDPATGRWTIELQDPATGERFTVTVYAPPSGPAGVEVTPNVSAG [r14_311_JUSTAS] | 3.409 ± 0.02 | 3.486 ± 0.032 | 3.61 ± 0.04 |
| SASLGISKIETSSLPNGTTVVTVTFSKPNLKVTLTKNPDGTITITLSPEVKKLPEEVKKLVEELAAKLSSAG [r14_555_JUSTAS] | 3.97 ± 0.048 | 3.95 ± 0.095 | 3.97 ± 0.1 |
| SASMGPEALVERIAEEIRKELGVDAGYKAPVEVRRPPDLVVVDAKLTVYKPDGNPLGEKTVRVVLPPLLSAG [r14_708_JUSTAS] | 0.0373 ± 0.22 | 0.129 ± 0.29 | -0.0399 ± 0.083 |
| SASMIIDPVSSEEEIEKLVKEAIEAGIGGEGLIVLRSDGKVYRITIEPGTGKVKKEEVMSPEELAAKLGSAG [r14_913_JUSTAS] | 2.11 ± 0.051 | 2.12 ± 0.16 | 1.75 ± 0.053 |
| SASMIQKYFKSQGYKIEKIEEKTLPNGERVVSYKITSTVNVPPNEKGVSKPVKKTTELTLSTEEAIKLGSAG [r14_16_JUSTAS] | 1.32 ± 0.21 | 1.04 ± 0.15 | 0.304 ± 0.14 |
| SASMSPEELIEIEIELKRGNRNFTLKIKIPVGLSEEEIEEAIEKAKKELEEKVKKLEEEPPLNPENNLISAG [r14_70_JUSTAS] | 3.45 ± 0.06 | 3.11 ± 0.12 | 2.33 ± 0.17 |
| SASSETFEIEVKVKLFFRDPEKGKLVEREFDAIVKVTVNPETGEVKVEVYFKPLGKPVTITLPPGASIESAG [r14_587_TrMRF] | 4.54 ± 0.16 | 4.26 ± 0.21 | 3.13 ± 0.2 |
| SASSITVSYDESTGVTTVTVDGGGFTFTVPNPEGKTLTVTVTQEALPDGTTRVTVTITFPDGSTTTVVVSAG [r14_675_JUSTAS] | 5 ± 0.18 | 5.06 ± 0.17 | 4.17 ± 0.2 |
| SASSSTTTSSGTLEEVLQQVEDYLKANPNTLVTIAPPDGTTTTVDLSYSPSIAVNGDPSGLTTVTITNSSAG [r14_807_JUSTAS] | 0.932 ± 0.032 | 1.23 ± 0.09 | 1.57 ± 0.057 |
| SASTSSISTETESRKISSFTVGDKEYEIYENTTTTTLPDGSVVTTTTLSVKDPSSNVTKTLSSTTTFTPSAG [r14_195_JUSTAS] | 2.49 ± 0.03 | 2.32 ± 0.12 | 2.09 ± 0.044 |
| SATGAIVLEKPVEFNIPDKNGKPVFKSKVLIFVDPGKDKVYALIYDPKTGKKLIVEFNSPEEVKKFFESSAG [r14_508_TrMRF] | 1.54 ± 0.12 | 1.65 ± 0.077 | 1.65 ± 0.031 |
| SATITVHNPWNGQPIEIRIDPGMTPEEIKKKIEKVPGIPPGTRDAVEKAIEYFEAYRQNPEQRKKLKKESAG [r14_732_TrROS] | 0.934 ± 0.096 | 0.675 ± 0.13 | 0.241 ± 0.093 |
| SATMLDYILDMAREQQEKNGKPVPITITIPVRRDPNGKFRMNEIHEELIKALKEAFPNVPIKIEMVPPPSAG [r14_636_TrROS] | 2.27 ± 0.036 | 2.28 ± 0.12 | 2.23 ± 0.076 |
| SATPTLTLEFEVEVEDPNAPGVPAPAKFTAEVAVTPPPVLYVGGEPWAGALLEQGLVTVGPDGLIAIPASAG [r14_582_TrMRF] | 1.11 ± 0.13 | 0.775 ± 0.13 | 0.442 ± 0.072 |
